# IntAct's records for PubMed 23917616
# B1: Myotubularin (Homo sapiens), Q13496 (parent)
# chain: MASASTSKYNSHSLENESIKRTSRDGVNRDLTEAVPRLPGETLITDKEVIYICPFNGPIKGRVYITNYRLYLRSLETDSSLILDVPLGVISRIEKMGGATSRGENSYGLDITCKDMRNLRFALKQEGHSRRDMFEILTRYAFPLAHSLPLFAFLNEEKFNVDGWTVYNPVEEYRRQGLPNHHWRITFINKCYELCDTYPALLVVPYRASDDDLRRVATFRSRNRIPVLSWIHPENKTVIVRCSQPLVGMSGKRNKDDEKYLDVIRETNKQISKLTIYDARPSVNAVANKATGGGYESDDAYHNAELFFLDIHNIHVMRESLKKVKDIVYPNVEESHWLSSLESTHWLEHIKLVLTGAIQVADKVSSGKSSVLVHCSDGWDRTAQLTSLAMLMLDSFYRSIEGFEILVQKEWISFGHKFASRIGHGDKNHTDADRSPIFLQFIDCVWQMSKQFPTAFEFNEQFLIIILDHLYSCRFGTFLFNCESARERQKVTERTVSLWSLINSNKEKFKNPFYTKEINRVLYPVASMRHLELWVNYYIRWNPRIKQQQPNPVEQRYMELLALRDEYIKRLEELQLANSAKLSDPPTSPSSPSQMMPHVQTHF
# partner: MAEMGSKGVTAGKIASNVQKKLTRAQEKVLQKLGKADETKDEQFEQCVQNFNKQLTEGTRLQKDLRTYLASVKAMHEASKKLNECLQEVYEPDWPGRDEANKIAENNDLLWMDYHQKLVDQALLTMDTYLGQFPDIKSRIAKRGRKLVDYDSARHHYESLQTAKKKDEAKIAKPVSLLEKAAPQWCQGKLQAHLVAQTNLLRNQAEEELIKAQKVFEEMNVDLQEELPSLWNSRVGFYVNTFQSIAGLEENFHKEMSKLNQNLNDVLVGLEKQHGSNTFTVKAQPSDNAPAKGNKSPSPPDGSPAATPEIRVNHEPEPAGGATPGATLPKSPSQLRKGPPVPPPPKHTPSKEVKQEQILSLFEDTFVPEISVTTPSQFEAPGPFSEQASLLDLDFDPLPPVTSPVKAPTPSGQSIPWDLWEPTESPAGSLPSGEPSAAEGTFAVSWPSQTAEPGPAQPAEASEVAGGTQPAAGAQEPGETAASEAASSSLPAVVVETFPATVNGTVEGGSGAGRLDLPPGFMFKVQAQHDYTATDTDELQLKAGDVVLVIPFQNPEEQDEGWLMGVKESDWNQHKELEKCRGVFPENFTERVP
# Variants of: B1
# Details: with bin1_human BIN1, O00499
row,effect of a mutation on the interaction,Variant
1,disrupting interaction,C375S
